Values of other authors in article PMC4317059.

Assays:
[1] = biological target: Asp143 (UniProt position 144, GNAGSDLACGV); assay: kinetics
[2] = biological target: Glu143 (UniProt position 144, GNAGSELACGV); assay: kinetics

Cu,Zn superoxide dismutase (SOD1) Arg143Asp mutant (Homo sapiens; R143D)
pKa [1]: ca. 6.2

Cu,Zn superoxide dismutase (SOD1) Arg143Glu mutant (Homo sapiens; R143E)
pKa [2]: ca. 6.2
